Source: US20230374144A1 (STAIDSON BEIJING BIOPHARMACEUTICAL, published 2023)
Residue numbers refer to the chain shown, from its start.

B1: C27 (antibody, human IgG4, V domains shown)
VH: EVQLLESGGGLVQPGGSLRLSCAASGFTLSSYAMHWVRQAPGKGLEYVSGISSNGGSTYYANSVKGRFTISRDNPKNTLFLQMSSLRAEDTAVYYCVRVKVGYRGGMDVWGQGTTVTVSS
VL: ETTLTQSPDTLPLSPGDRASLSCRASQSVSSAYLAWYQQKPGQAPRLLIYGTSRRATGVPGRFSGSGSGTDFTLTISRLEPEDFAVYYCQLYGSSSVTFGQGTKLEIK
notes: also called parent antibody C27; lead parent antibody
B2: C27-52-52 (antibody, human IgG4, V domains shown)
VH: B1 VH with N54S, G56S, V101P, G102A
VL: EIVLTQSPGTLSLSPGERATLSCRASQGVSTAYLAWYQQKPGQAPRLLIYGTSRRATGIPDRFSGSGSGTDFTLTISRLEPEDFAVYYCQLYGATSVTFGQGTKLEIK
B3: C27-58-58 (antibody, human IgG4, V domains shown)
VH: B1 VH with S53P, N54S, G55S, G56N, G102R
VL: B2 VL with G28D, V29I, T31S
B4: C27-67-67 (antibody, human IgG4, V domains shown)
VH: B1 VH with S53P, N54T, G55S, G56A, V101G, G102R
VL: B2 VL with T31S, A94R, T95S
B5: C27-54-54 (antibody, human IgG4, V domains shown)
VH: B1 VH with S53H, N54S, G56T, K100R, G102L
VL: B2 VL with G28D, T31S
B6: C27-53-53 (antibody, human IgG4, V domains shown)
VH: B1 VH with K100F, G102R
VL: B2 VL with G28D, V29A, T31N, A94S, T95S
B7: C27-33-33 (antibody, human IgG4, V domains shown)
VH: B1 VH with N54S, G56S, G102A
VL: B2 VL with V29I, T31S
B8: C27-55-55 (antibody, human IgG4, V domains shown)
VH: B1 VH with S53P, N54T, V101G, G102R
VL: B2 VL with G28N, V29I, A94T, T95S
B9: C27-56-56 (antibody, human IgG4, V domains shown)
VH: B1 VH with S53P, N54S, G55S, G56T, G102L
VL: B2 VL with G28S, T31S, T95S
B10: C27-82-58 (antibody, human IgG4, V domains shown)
VH: B1 VH with S53G, G55S, G56A, V101L, G102K
VL: B2 VL with G28D, V29I, T31S
B11: C27-36-36 (antibody, human IgG4, V domains shown)
VH: B1 VH with S53P, N54S, G56V, G102K
VL: B2 VL with G28N, V29I
B12: C27-78-78 (antibody, human IgG4, V domains shown)
VH: B1 VH with S53P, N54S, G55S, G56A, V101S, G102K
VL: B2 VL with G28S, V29I, T95S

How the values were obtained:
human IL-4Rα on cells = human IL-4Rα on cells (human, UniProt P24394 26-825); test: cell-based or functional assay
[1] = biological target: T1, recombinant human IL-4Rα (extracellular domain, tagged) (human, UniProt P24394 26-232); test: SPR, Biacore T200; antibody (human IgG4) on the sensor chip, human IL-4Rα at 0.625-12.5 nM
T1 construct: it is written second here only for want of that; also called hIL-4Rα; not shown: His-tag or other conventionally used tag
Protocol: The binding affinity of the anti-IL-4Rα antibodies (reformatted as human IgG4) to human IL-4Rα was characterized using Biacore T200 (GE). The full-length anti-IL-4Rα antibodies were stabilized on sensor chip CMS. The affinities for human IL-4Rα at various concentrations were measured. […] Using the SPR technology, the association and dissociation rates were measured, and binding affinity was determined.

Binder | IC50(nM), neutralization of hIL-4 (1.2 ng/ml), HEK-Blue IL-4/IL-13 STAT6-SEAP reporter cells (human IL-4Rα on cells) | Kd [1] | koff [1] | kon [1]
B1 | 17.9 nM | 17.6 nM | 0.0127 s⁻¹ | 719000 M⁻¹ s⁻¹
B2 | 0.476 nM | – | – | –
B3 | 0.41 nM | – | – | –
B4 | 0.076 nM | – | – | –
B5 | 0.34 nM | – | – | –
B6 | 0.293 nM | – | – | –
B7 | 0.195 nM | 3.74 nM | 0.000447 s⁻¹ | 119000 M⁻¹ s⁻¹
B8 | 0.0853 nM | 2.47 nM | 0.000379 s⁻¹ | 154000 M⁻¹ s⁻¹
B9 | 0.15 nM | 2.38 nM | 0.000201 s⁻¹ | 84500 M⁻¹ s⁻¹
B10 | 0.283 nM | 3.67 nM | 0.000557 s⁻¹ | 152000 M⁻¹ s⁻¹
B11 | 0.125 nM | 2.56 nM | 0.000351 s⁻¹ | 137000 M⁻¹ s⁻¹
B12 | 0.103 nM | 3.62 nM | 0.000416 s⁻¹ | 115000 M⁻¹ s⁻¹
